Measured values from patent US20150273076A1, “SP1 POLYPEPTIDES, MODIFIED SP1 POLYPEPTIDES AND USES THEREOF” (Fulcrum SP Ltd., priority 2006, published 2015).

Columns and labels:
[1] = Repetitive iv injections of SP1: toxicity, liver histopathology; assay type: in vivo
Description: 35 mg/Kg SP1 or PBS control were injected iv (tail vein) to C57B1 mail mice on days 0, 9, 16, 23, 37 and 53 (6 and 5 animals in the SP1 and PBS groups, respectively). 55 days past the first injection the animals were sacrificed and their livers were subjected to histopathology analysis.

[2] = Resistance of SP1 complex to organic solvents; assay type: physicochemical
Description: 150 ul of 1 mg/ml samples in 10 mM sodium phosphate pH 7 were lyophilized overnight and resuspended in 150 μl organic solvents for 10 minutes. Following a 30 minutes speed vac the samples were resuspended in 150 μl water and analyzed by SDS-PAGE.
In order to further test the stability of SP1 and SP1 oligomeric complexes, wild type SP1 and the SP1 variant Cys2 SP1 were dissolved in buffer, exposed to organic solvents methanol and hexane, and analyzed by SDS-PAGE (FIG. 18).
In order to determine the stability of the SP1 complex in organic solvents, SP1 and Cys2 SP1-variant (SEQ ID NO: 3) were dissolved in organic solvents, dried, reconstituted with aqueous solvent, and separated on SDS-PAGE.

proteinase K or alkalase = assay: Protease resistance by SDS PAGE; assay type: physicochemical; conditions: V8 protease, similar with trypsin, subtilysine
Description: Protease Susceptibility Examination of SP1—SP1 (10 μg) prepared either in V8 protease digestion buffer (125 mM Tris-HCl, pH 6.8, 10% glycerol, 0.5% SDS) or standard buffer (20 mM Tris-HCl, pH 7.5, 1 mM EDTA, 50 mM NaCl), was boiled for 2 min or not boiled prior the addition of protease (Staphylococcus aureus V8 protease, trypsin, proteinase K, Sigma Chemicals Inc., Israel). Proteases were added to a final concentration of 50 μg/ml (SP1: protease equal to 1:20, w/w). The digestion was performed at 37° C. for 1 hr. The samples were then prepared in SDS sample buffer, and boiled or not before being subjected to 17% tricine-SDS-PAGE.
SP1 is vulnerable to V8 protease or subtilysine (alcalase, Novo Industries) digestion when disassociated to its monomeric form (boiled in 0.5% SDS, or dissolved inclusion bodies). […] When the oligomer-protease mixture was further boiled in SDS sample buffer, only the SP1 monomer was observed and no peptide fragment was detected on the gel. When the same mixture was subjected to SDS-PAGE analysis without boiling, an intact complex was observed. […] Thus, whereas properly folded SP1 protein is protease resistance, unfolded protein, susceptible to protease, can be removed by protease and heat treatment (FIG. 5).

[3] = SP1 stability following exposure to SDS and heating; assay type: physicochemical
Description: The stability of the SP1 complex in the presence of SDS was examined by incubating purified SP1 with SDS at different molar ratios and at different temperatures. Dissociation of the SP1 complex to monomers required a molar ratio greater than 600:1 (SDS:SP1-monomer) accompanied by boiling before loading onto the gel.

[4] = Protein melting point by DSC; assay type: physicochemical
Description: Differential scanning calorimetry study of SP1 indicates in a Tm of 107° C. for SP1. […] Further, folding and refolding of inclusion bodies including insoluble SP1, and the heat stability of the unfolded proteins indicate that the intact monomer, as well as the oligomer, is heat resistant (FIG. 5).

[5] = Immunogenicity: anti SP1 antibody production by ELISA; assay type: in vivo, C57B1 mice; conditions: after repetitive injections
Source text: In order to determine the degree of immunogenicity of SP1, anti SP1 antibody production in both PBS- and SP1-treated animals was detected using ELISA, using either directly immobilized SP1 or rabbit anti SP1 antibodies (second antibody was HRP conjugated anti mouse IgG). Serum obtained from both PBS- and SP1-treated animals had negligible anti-SP1 antibody reaction, with no difference between the two groups.

[6] = tested on: Human colon adenocarcinoma (HT-29) cells; assay: In-vitro cytotoxicity in HT-29 cells; assay type: cell-based; conditions: HT-29 cells, dose inhibiting 50% of cell growth
Source text: FIGS. 24a and 24b are graphs illustrating the in-vitro cytotoxic effects of SP1-DOX complex. FIG. 24a—HT-29 cells cultured in 96 well microtiter plates were exposed to uncomplexed DOX (closed oval, magenta) or SP1-DOX complex (closed triangle, blue) prepared as described in FIGS. 9-15, at the indicated concentrations. FIG. 24b—HT-29 cells were exposed to uncomplexed SP1 (without DOX) (closed diamond, blue) or SP1-DOX complex (closed triangle, yellow) at indicated concentrations. Proportion of living cells was determined by MTT assay, and the IC50 was calculated.
HT-29 cells were prepared as in FIG. 24 above.
Human colon adenocarcinoma (HT-29) cells. The cells were grown in 50-ml flasks containing DMEM medium (Biological Industries, Bet Haemek), supplemented with 10% fetal calf serum, 1% glutamine and 1% Antibiotic-Antimicotic solution (Biolab, Israel). The cells were trypsinizated, and 2 ml medium containing 5×10^4 cells were plated in each well of a 6-wells plate. SP1, drugs or SP1-complexed with drugs was added at the indicated concentrations. The cells were incubated at 37° C. in a humidified atmosphere containing 5% CO2.After 48 hours the medium in the presence or absence of drugs was replaced in each well respectively, to maintain a constant supply of ingredients and drugs. After four days the medium was removed and the number of viable cells in the cultures was determined by spectroscopy.
The human colorectal adenocarcinoma cell line, HT-29, was used to evaluate the biological activity of the SP1-DOX complex, compared to that of the free drug and un-complexed SP1 protein. […] Thus, the SP1-DOX complex is at least as biologically active as free DOX.

Substance: wild type: stress related SP1 protein from aspen (Populus tremula), recombinant, SEQ ID NO:1
- animals without any pathological response ([1]; 35 mg/Kg iv on days 0, 9, 16, 23, 37 and 53, up to 55 days): Four out of six
- liver histopathology ([1]; 55 days past the first injection): appeared normal
- animals died ([1]; after 17 days, unknown reason): Two out of 6
- protease resistance after hexane treatment ([2]; hexane-treated, data not shown): resistance to protease treatment
- resistance of oligomeric complex to organic solvents ([2]; methanol, hexane, SDS-PAGE): Predominantly high molecular weight oligomer complex form
- digestion of the intact oligomer by protease (proteinase K or alkalase): unable to digest the intact oligomer
- disassociation of the complex ([3]; 1734-fold SDS (1%), temperatures of 80° C. or lower): did not cause significant disassociation of the complex
- molar ratio (SDS:SP1-monomer) required for dissociation of the complex to monomers ([3]; accompanied by boiling before loading onto the gel): greater than 600
- state of SP1 on SDS-PAGE ([3]; without boiling, SDS ratio of 3467 to 1): remained as a complex
- Tm ([4]; Differential scanning calorimetry): 107 °C
- Tm ([4]; protein melting point by DSC, in °C (unit assumed)): 107
- anti-SP1 antibody reaction in serum [5]: negligible
- IC50 ([6]; listed as SP1): inactive
- IC50 ([6]; listed as SP-1): absence of cytotoxicity
